Sequences and labels used below:
B1: CPEB3 Ribozyme (parent)
chain: GGGGGCCACAGCAGAAGCGUUCACGUCGCGGCCCCUGUCAGAUUCUGGUGAAUCUGCGAAUUCUGCUGU

The data set covers variants of B1. Briefly: self-cleavage, relative activity (ratio to wild type); higher = more cleavage; co-transcriptional.
As to C27A C39A, the self-cleavage is 0.205.

Regarding C27G U67A, the self-cleavage was 0.166.

For C27G U67C, the self-cleavage was 0.247.

For the variant C27G U67G, the self-cleavage is 0.255.

Regarding G28A A52G, the self-cleavage came to 0.234.

As for C27G C34G, the self-cleavage was 0.142.

On to C27G C34U, for which the self-cleavage came to 0.223.

For the variant C27A U46A, the self-cleavage came out at 0.736.

For C27A U46G, the self-cleavage is 0.725.

Consider U26G U69C, for which the self-cleavage came to 1.04.

With U26G U69A, the self-cleavage worked out at 1.

For the variant U26G U69G, the self-cleavage was 1.

For G28A C34A, the self-cleavage was determined as 0.218.

C27G C35G: the self-cleavage was determined as 0.171.

For the variant C27G C35A, the self-cleavage stood at 0.124.

As to C27G C35U, the self-cleavage was found to be 0.179.

With U26G U44C, the self-cleavage was found to be 0.866.

As to U26G U44A, the self-cleavage turned out to be 0.925.

U26G U44G: the self-cleavage was determined as 0.811.

In the case of C27A C35U, the self-cleavage was 0.441.

For C27A C35A, the self-cleavage is 0.209.

As for U26G U53G, the self-cleavage came out at 0.778.

Take U26G U53A: the self-cleavage stood at 0.782.

U26G U53C: the self-cleavage was 0.768.

For the variant U26G U64A, the self-cleavage is 0.692.

On to U26G U64C, for which the self-cleavage turned out to be 0.756.

For the variant C27A U62G, the self-cleavage amounted to 0.241.

With C27A U62A, the self-cleavage was 0.288.

As to C27A U62C, the self-cleavage was 0.365.

In the case of U26G U62C, the self-cleavage was found to be 0.674.

With C27U U61C, the self-cleavage came to 0.14.

Take C27G G47C: the self-cleavage turned out to be 0.226.

C27G C66A: the self-cleavage was 0.174.

On to C27G C66U, for which the self-cleavage was found to be 0.156.

Regarding C27G A52C, the self-cleavage came out at 0.191.

Turning to C27G A52U, the self-cleavage was 0.132.

Take C27G A52G: the self-cleavage is 0.24.

Consider U26G U55G, for which the self-cleavage turned out to be 0.404.

For U26G G58A, the self-cleavage worked out at 0.557.

Consider U26G G58U, for which the self-cleavage was determined as 0.87.

Take C27U U69C: the self-cleavage came out at 0.769.

In the case of C27U U69G, the self-cleavage came to 0.457.

On to C27U G56A, for which the self-cleavage came out at 0.308.

Regarding C27U G56C, the self-cleavage was 0.194.

Regarding C27U, the self-cleavage came to 0.417.

For the variant C27A, the self-cleavage was 0.711.

Take C27G: the self-cleavage stood at 0.197.

In the case of C27G U64G, the self-cleavage came to 0.25.

For C27G U64A, the self-cleavage came out at 0.215.

On to C27G U44G, for which the self-cleavage is 0.155.

C27G C63G: the self-cleavage was 0.225.

With C27G C63U, the self-cleavage is 0.209.

On to C27A G58U, for which the self-cleavage is 0.727.

C27A G58A: the self-cleavage was found to be 0.377.

As for C27U U38C, the self-cleavage was found to be 0.268.

Consider C27U U38A, for which the self-cleavage is 0.281.

In the case of C27G A59C, the self-cleavage is 0.151.

For C27G A59G, the self-cleavage turned out to be 0.259.

Regarding C27G A59U, the self-cleavage was 0.216.

With C27U U64G, the self-cleavage worked out at 0.197.

Regarding C27U U64C, the self-cleavage came to 0.245.

For the variant C27U A60G, the self-cleavage was determined as 0.254.

On to C27U A60C, for which the self-cleavage was 0.192.

For C27A U64G, the self-cleavage stood at 0.319.

For C27A U64A, the self-cleavage stood at 0.286.

As for C27U C63U, the self-cleavage is 0.17.

Take C27A A60U: the self-cleavage is 0.249.

Take C27A A60G: the self-cleavage was found to be 0.253.

Take C27U A51U: the self-cleavage amounted to 0.303.

Turning to C27U A51C, the self-cleavage worked out at 0.259.

For C27U A51G, the self-cleavage stood at 0.376.

In the case of C27A G37C, the self-cleavage worked out at 0.17.

In the case of C27A G37U, the self-cleavage was determined as 0.17.

As to C27U C66G, the self-cleavage was 0.262.

C27U C66U: the self-cleavage amounted to 0.203.

Consider C27U C66A, for which the self-cleavage was found to be 0.179.

As to C27G U53C, the self-cleavage was found to be 0.134.

For the variant C27G U53A, the self-cleavage is 0.221.

For the variant C27G U53G, the self-cleavage came to 0.267.

For the variant C27A A40G, the self-cleavage turned out to be 0.452.

C27A A40U: the self-cleavage is 0.304.

For C27A A40C, the self-cleavage came out at 0.256.

Regarding C27G G50A, the self-cleavage is 0.17.

Consider C27G G50C, for which the self-cleavage was 0.141.

As to C27G G50U, the self-cleavage stood at 0.175.

For C27U G31U, the self-cleavage turned out to be 0.192.

As for C27U G31A, the self-cleavage was 0.266.

Turning to U26G U38C, the self-cleavage was 0.664.

For U26G U38A, the self-cleavage stood at 0.375.

U26G U38G: the self-cleavage amounted to 0.171.

As to C27A A42C, the self-cleavage came out at 0.286.

With C27A A42U, the self-cleavage was 0.379.

As to C27A A42G, the self-cleavage stood at 0.419.

With G28A C63A, the self-cleavage turned out to be 0.182.

For the variant U26G U67C, the self-cleavage was 0.91.

On to U26G U67G, for which the self-cleavage worked out at 0.968.

Consider U26G U67A, for which the self-cleavage worked out at 0.854.

With C27A C66G, the self-cleavage worked out at 0.327.

Turning to C27A C66A, the self-cleavage stood at 0.334.

For C27A U43G, the self-cleavage turned out to be 0.226.

Take C27A U43A: the self-cleavage stood at 0.18.

On to C27A C32A, for which the self-cleavage turned out to be 0.241.

Consider C27A C32G, for which the self-cleavage came out at 0.155.

In the case of C27U C54U, the self-cleavage was determined as 0.328.

For the variant C27U C54A, the self-cleavage came out at 0.18.

As for C27U C54G, the self-cleavage was 0.195.

For C27A C54A, the self-cleavage was found to be 0.25.

Regarding C27U G58C, the self-cleavage was 0.351.

For the variant C27U G58U, the self-cleavage came to 0.526.

Regarding C27U G58A, the self-cleavage stood at 0.237.

U26G U36C: the self-cleavage stood at 0.42.

Regarding U26G U36G, the self-cleavage stood at 0.198.

C27A U69G: the self-cleavage stood at 0.825.

Consider C27A U69A, for which the self-cleavage amounted to 0.843.

In the case of C27A U69C, the self-cleavage is 0.955.

On to C27A U53A, for which the self-cleavage stood at 0.344.

Take C27A U53C: the self-cleavage was found to be 0.213.

As for C27G A42C, the self-cleavage is 0.177.

C27G A42G: the self-cleavage is 0.15.

Turning to C27G U55A, the self-cleavage is 0.142.

C27G U55G: the self-cleavage turned out to be 0.159.

Take U26G U46C: the self-cleavage is 0.86.

Regarding U26G U46G, the self-cleavage turned out to be 0.86.

In the case of U26G U46A, the self-cleavage was 0.854.

Turning to C27A C57U, the self-cleavage worked out at 0.173.

As to C27A C57A, the self-cleavage is 0.189.

As for U26G U61G, the self-cleavage amounted to 0.558.

Take C27U U49G: the self-cleavage turned out to be 0.421.

Regarding C27U U62A, the self-cleavage stood at 0.217.

As to G28A A40U, the self-cleavage came out at 0.167.

As to G28A A40G, the self-cleavage was 0.214.

Consider C27U U43G, for which the self-cleavage came to 0.14.

For C27U U43A, the self-cleavage is 0.188.

In the case of C27U G47C, the self-cleavage came out at 0.436.

On to C27U G47U, for which the self-cleavage was 0.431.

With C27A G68A, the self-cleavage was found to be 0.853.

As to C27G G68C, the self-cleavage was 0.234.

Turning to C27G G68U, the self-cleavage was found to be 0.309.

U26G U49G: the self-cleavage was found to be 0.907.

Regarding U26G U49C, the self-cleavage turned out to be 0.924.

On to C27G U43C, for which the self-cleavage worked out at 0.239.

As to U26G G48U, the self-cleavage turned out to be 0.923.

In the case of C27U C32U, the self-cleavage was found to be 0.403.

As for C27U C32A, the self-cleavage came out at 0.227.

Turning to C27U C32G, the self-cleavage came to 0.186.

Consider C27G G65A, for which the self-cleavage stood at 0.141.

Consider C27U C39A, for which the self-cleavage came to 0.186.

Regarding C27U C39G, the self-cleavage came out at 0.164.

As for C27A G31C, the self-cleavage is 0.181.

As to C27U C45G, the self-cleavage was determined as 0.243.

Take C27G G56C: the self-cleavage is 0.135.

In the case of G28A A42G, the self-cleavage is 0.131.

As to G28A A42C, the self-cleavage was found to be 0.177.

For the variant G28A A42U, the self-cleavage is 0.137.

Regarding C27U G37U, the self-cleavage came out at 0.0803.

Regarding C27U G37C, the self-cleavage was 0.147.

C27U G41U: the self-cleavage was 0.186.

Take C27U G41C: the self-cleavage is 0.195.

Take C27U U53C: the self-cleavage came out at 0.169.

On to G28A C54G, for which the self-cleavage came out at 0.177.

G28A C54U: the self-cleavage turned out to be 0.194.

Take C27A C45A: the self-cleavage worked out at 0.504.

As for C27A C45G, the self-cleavage worked out at 0.578.

As for C27G G28U, the self-cleavage amounted to 0.154.

With C27G G28C, the self-cleavage was 0.13.

As for C27U C34U, the self-cleavage turned out to be 0.415.

Consider C27U C34A, for which the self-cleavage is 0.201.

The values are drawn from the RNAGym collection of RNA variant scans (doi:10.7554/elife.80360).
